In PMC2835468 (Matrix biology : journal of the International Society for …, 2009):

T1: ADAMTS5-2 (human ADAMTS-5 deletion mutant, C-terminal FLAG-tag) (human, UniProt Q9UNA0 262-874)
T1 sequence (looked up): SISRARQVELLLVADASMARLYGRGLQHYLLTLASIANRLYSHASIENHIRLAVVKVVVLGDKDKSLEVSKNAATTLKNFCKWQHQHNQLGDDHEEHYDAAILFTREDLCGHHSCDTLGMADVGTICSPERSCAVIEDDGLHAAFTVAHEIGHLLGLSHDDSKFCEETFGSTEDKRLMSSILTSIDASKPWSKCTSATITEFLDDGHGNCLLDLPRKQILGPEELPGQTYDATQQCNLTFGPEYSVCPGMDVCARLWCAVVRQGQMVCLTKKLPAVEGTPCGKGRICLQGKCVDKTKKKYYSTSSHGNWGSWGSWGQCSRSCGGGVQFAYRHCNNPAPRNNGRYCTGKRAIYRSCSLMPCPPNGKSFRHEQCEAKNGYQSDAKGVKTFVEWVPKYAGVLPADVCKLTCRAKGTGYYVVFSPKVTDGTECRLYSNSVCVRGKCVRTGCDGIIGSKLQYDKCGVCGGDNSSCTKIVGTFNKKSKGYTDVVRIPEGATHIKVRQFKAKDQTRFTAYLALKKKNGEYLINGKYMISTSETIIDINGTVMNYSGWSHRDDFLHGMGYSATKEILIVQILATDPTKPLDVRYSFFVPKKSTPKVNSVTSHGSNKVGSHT

T2: ADAMTS4-2 (human ADAMTS-4 deletion mutant, C-terminal FLAG-tag) (human, UniProt O75173 213-685)
T2 sequence (looked up): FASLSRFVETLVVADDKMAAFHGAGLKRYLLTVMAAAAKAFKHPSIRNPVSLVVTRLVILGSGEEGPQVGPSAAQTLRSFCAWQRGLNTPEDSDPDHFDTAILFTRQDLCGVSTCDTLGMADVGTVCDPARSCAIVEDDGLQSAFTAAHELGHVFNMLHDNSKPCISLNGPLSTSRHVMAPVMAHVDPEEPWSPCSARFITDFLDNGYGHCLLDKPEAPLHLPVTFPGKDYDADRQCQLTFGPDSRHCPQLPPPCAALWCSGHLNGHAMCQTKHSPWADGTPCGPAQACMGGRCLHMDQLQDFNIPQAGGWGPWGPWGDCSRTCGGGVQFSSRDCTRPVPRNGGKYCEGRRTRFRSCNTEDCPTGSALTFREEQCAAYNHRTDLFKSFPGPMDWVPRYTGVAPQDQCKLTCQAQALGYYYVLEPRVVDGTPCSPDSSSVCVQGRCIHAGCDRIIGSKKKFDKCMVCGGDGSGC

T3: Catalytic domain of human MMP-1 (MMP-1cat) (human, UniProt P03956 100-269)
T3 sequence (looked up): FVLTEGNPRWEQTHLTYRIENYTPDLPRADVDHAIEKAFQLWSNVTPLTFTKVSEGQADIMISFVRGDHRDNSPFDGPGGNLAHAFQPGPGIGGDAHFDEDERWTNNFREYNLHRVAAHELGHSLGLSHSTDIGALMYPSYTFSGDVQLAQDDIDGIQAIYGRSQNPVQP


Columns and labels:
Assay in all cases: enzyme inhibition kinetics
[1] = target: T1, ADAMTS5-2 (human ADAMTS-5 deletion …)
[2] = target: T2, ADAMTS4-2 (human ADAMTS-4 deletion …)
[3] = target: T3, Catalytic domain of human MMP-1 …
[4] = target: Catalytic domain of human MMP-3 (MMP-3cat) (human, UniProt P08254 100-272)
Chain of Catalytic domain of human MMP-3 (MMP-3cat) (P08254 100-272): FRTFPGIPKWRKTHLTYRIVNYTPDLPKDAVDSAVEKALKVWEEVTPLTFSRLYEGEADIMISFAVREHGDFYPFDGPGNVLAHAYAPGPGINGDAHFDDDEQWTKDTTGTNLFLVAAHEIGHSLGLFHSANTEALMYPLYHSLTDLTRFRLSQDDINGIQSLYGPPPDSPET

Ki [1] [nM]	Ki [2] [nM]	Ki [3] [nM]	Ki [4] [nM]	Binder
1.37	0.2	–	–	Non-glycosylated full-length human TIMP-3, FLAG-tagged, from HEK293 cells treated with tunicamycin (natural protein, UniProt P35625 24-211, looked up) CTCSPSHPQDAFCNSDIVIRAKVVGKKLVKEGPFGTLVYTIKQMKMYRGFTKMPHVQYIHTEASESLCGLKLEVNKYQYLLTGRVYDGKMYTGLCNFVERWDQLTLSQRKGLNYRYHLGCNCKIKSCYYLPCFVTSKNECLWTDMLSNFGYPGYQSKHYACIRQKGGYCSWYRGWAPPDKSIINATDP
0.32	0.79	0.8	11.1	N-terminal domain of human TIMP-3 with C-terminal His-tag, expressed in Escherichia coli and folded in vitro (domain or fragment, UniProt P35625 24-144, looked up) CTCSPSHPQDAFCNSDIVIRAKVVGKKLVKEGPFGTLVYTIKQMKMYRGFTKMPHVQYIHTEASESLCGLKLEVNKYQYLLTGRVYDGKMYTGLCNFVERWDQLTLSQRKGLNYRYHLGCN
